Results as given in patent publication US20240174754A1 (published 2024).

Experiments:
[1] = molecular target: Human CD8+ T Cells; assay: FACS binding to human CD8+ T cells; Donor KP63715
[2] = molecular target: Human CD8+ T Cells; assay: FACS binding to human CD8+ T cells; Donor KP63218

B1: PA015 (antibody, V domains shown)
VH: QVTLRESGPALVKPTQTLTLTCTVSGFSLSTFGMGVGWIRQPPGKALEWLAHIWWDDDKWYELALKSRLTISKDTSKNQVVLTITNMDPVDTATYYCARVIYYGSRSAYYSMDYWGQGTTVTVSS
VL: DVVMTQTPLSLSVTPGQPASISCKSSQSIVHSNAHTYLEWYLQKPGQSPQLLIYKVSNRFSGVPDRFSGSGSGTDFTLKISRVEAEDVGVYYCFQGSHVPVTFGQGTKLEIKR
[1]
  EC50: 3.18 ng/mL
[2]
  EC50: 0.0108 µg/mL
